From patent US20110158936A1 (LORUS THERAPEUTICS, published 2011)

T1: murine interleukin 17E receptor present on the pre-B cell line 70Z/3 (murine, UniProt Q9JIP3 18-499)
T1 construct: whole, on cells; This is the endogenous receptor on 70Z/3 cells; also called murine IL-17E receptor; IL-17E receptor
T1 sequence (looked up): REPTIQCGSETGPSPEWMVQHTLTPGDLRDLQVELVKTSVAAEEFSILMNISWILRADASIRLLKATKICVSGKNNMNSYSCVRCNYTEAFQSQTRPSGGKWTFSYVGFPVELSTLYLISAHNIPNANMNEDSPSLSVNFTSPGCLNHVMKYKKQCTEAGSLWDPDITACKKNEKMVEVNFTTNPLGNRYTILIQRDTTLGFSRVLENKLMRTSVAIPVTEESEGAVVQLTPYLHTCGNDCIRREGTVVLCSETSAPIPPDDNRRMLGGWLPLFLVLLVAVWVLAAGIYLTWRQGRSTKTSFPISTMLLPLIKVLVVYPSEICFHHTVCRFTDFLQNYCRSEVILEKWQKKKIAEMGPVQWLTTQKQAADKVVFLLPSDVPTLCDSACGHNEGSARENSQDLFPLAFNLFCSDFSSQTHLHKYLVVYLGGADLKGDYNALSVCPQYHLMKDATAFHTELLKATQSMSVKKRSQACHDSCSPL


Experiments:
[1] = target: T1, murine interleukin 17E receptor present …; assay: FACS on 70Z/3 cells incubated with IL-17E (1 ug/10^6 cells), detected with biotin-conjugated goat anti-human IL17E and PE-Cy5.5 streptavidin
Protocol: (§1) The ability of human and murine interleukin 17E to bind to the IL-17E receptor was examined using the murine pre-B cell line 70Z/3 (Paige, C. J., et al. (1981) Nature 292:631-3).
(§2) Fluorescence-Activated Cell Sorter (FACS) Analysis: 1×10⁶ 70Z/3 cells/sample were incubated with either murine or human IL-17E (1 μg/10⁶ cells) for 30 minutes at 4° C. After washing twice, cells that had been incubated with murine IL-17E were incubated with biotin-conjugated goat anti-mouse IL17E and phycoerythrin (PE)-Cy5.5-conjugated streptavidin. Cells that had been incubated with human IL-17E were incubated with biotin-conjugated goat anti-human IL17E-biotin and phycoerythrin (PE)-Cy5.5-conjugated streptavidin. As negative controls, cells were stained with antibodies as described without preincubation with human or murine IL-17E. Samples were then fixed with 0.5% paraformaldehyde prior to FACS analysis.

[2] = target: T1, murine interleukin 17E receptor present …; assay: FACS on 70Z/3 cells incubated with IL-17E (1 ug/10^6 cells), detected with biotin-conjugated goat anti-mouse IL17E and PE-Cy5.5 streptavidin
Protocol: as §1, §2

binding result [1]	binding result [2]	Binder
binds	–	recombinant human interleukin 17E (ligand, also called human IL-17E; hIL-17E) YSHWPSCCPSKGQDTSEELLRWSTVPVPPLEPARPNRHPESCRASEDGPLNSRAISPWRYELDRDLNRLPQDLYHARCLCPHCVSLQTGSHMDPRGNSELLYHNQTVFYRRPCHGEKGTHKGYCLERRLYRVSLACVCVRPRVMG
–	binds	murine interleukin 17E (ligand, also called murine IL-17E; mIL-17E) VSLRIQEGCSHLPSCCPSKEQEPPEEWLKWSSASVSPPEPLSHTHHAESCRASKDGPLNSRAISPWSYELDRDLNRVPQDLYHARCLCPHCVSLQTGSHMDPLGNSVPLYHNQTVFYRRPCHGEEGTHRRYCLERRLYRVSLACVCVRPRVMA
